Earlier results, collected in publication PMC12153800.

Target: FZD10 (Homo sapiens) (UniProt Q9ULW2)
Assay: NanoBiT/BRET

Sequence of FZD10 (Homo sapiens) (Q9ULW2 21-581): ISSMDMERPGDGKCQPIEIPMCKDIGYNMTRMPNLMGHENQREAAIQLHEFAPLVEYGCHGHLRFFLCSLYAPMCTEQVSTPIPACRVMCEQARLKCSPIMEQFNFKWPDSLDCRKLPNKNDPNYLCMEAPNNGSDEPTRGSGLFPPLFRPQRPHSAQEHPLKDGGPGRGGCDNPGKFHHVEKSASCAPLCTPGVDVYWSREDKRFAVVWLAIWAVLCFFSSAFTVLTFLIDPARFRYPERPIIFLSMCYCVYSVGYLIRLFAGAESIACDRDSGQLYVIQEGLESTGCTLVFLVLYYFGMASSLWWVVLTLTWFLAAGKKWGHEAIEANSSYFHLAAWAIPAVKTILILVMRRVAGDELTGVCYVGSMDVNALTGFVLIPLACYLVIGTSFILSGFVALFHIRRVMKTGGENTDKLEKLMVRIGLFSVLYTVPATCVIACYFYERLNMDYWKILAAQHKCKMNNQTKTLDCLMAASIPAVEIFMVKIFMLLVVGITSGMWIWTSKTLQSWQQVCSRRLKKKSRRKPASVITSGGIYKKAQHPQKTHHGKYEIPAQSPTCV
Sequence of Wnt3a (P56704 19-352): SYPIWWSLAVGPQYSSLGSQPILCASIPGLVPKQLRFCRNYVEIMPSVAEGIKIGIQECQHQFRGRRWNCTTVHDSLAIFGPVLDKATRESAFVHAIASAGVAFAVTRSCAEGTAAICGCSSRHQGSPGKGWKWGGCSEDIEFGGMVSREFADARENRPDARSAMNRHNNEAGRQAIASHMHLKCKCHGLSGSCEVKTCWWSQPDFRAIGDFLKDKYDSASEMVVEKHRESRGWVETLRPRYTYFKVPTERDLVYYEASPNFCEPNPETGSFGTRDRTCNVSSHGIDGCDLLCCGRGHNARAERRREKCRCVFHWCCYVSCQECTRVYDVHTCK

In the case of Wnt3a (from UniProt P56704), the Kd is given as 4.3 nM.
